Measured values reported in patent publication US20100298225A1, “PEPTIDE GAP JUNCTION MODULATORS” (priority 2007, published 2010).
Entries after “also recorded” stand apart in the source; their conditions may differ.

Assays:
[1] = biological target: T1, Cx43-expressing N2a cells (Rattus norvegicus, UniProt P08050); experiment: Dual patch clamp: octanol-induced uncoupling, junctional conductance between cell pairs; assay type: cell-based; settings: for Effect on octanol-induced uncoupling / Ability to re-open gap junctions closed by the uncoupler (revert uncoupled cells to coupled): 0.1 mM peptide in internal pipette solution, octanol superfusion; for Effect on octanol-induced uncoupling: Vj 60 mV; for Average junctional conductance (Gj) as a function of time after onset of octanol: 0.1 mM peptide in pipette, Gj relative to value before octanol, N=7 pairs; for Cell pairs that remained coupled / uncoupled following onset of octanol superfusion: seven cell pairs, peptide in pipette, uncoupling = zero junctional current at 60-mV pulse
T1 construct: expressed in transfected cells; host or cells: N2a (neuroblastoma) cells
T1 sequence (P08050 whole entry, the tested form may be a part): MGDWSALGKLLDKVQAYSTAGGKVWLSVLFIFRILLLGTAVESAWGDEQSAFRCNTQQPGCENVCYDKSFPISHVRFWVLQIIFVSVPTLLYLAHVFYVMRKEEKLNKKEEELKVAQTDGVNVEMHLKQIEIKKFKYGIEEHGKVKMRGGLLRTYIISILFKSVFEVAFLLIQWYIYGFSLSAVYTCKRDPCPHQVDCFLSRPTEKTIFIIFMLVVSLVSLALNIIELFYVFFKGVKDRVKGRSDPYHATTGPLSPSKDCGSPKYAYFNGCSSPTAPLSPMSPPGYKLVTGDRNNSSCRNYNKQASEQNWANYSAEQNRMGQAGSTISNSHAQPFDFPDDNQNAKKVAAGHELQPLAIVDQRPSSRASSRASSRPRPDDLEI
Experimental: Experiments were conducted on N2a (Neuroblastoma) cells. Cx43 was expressed either in a lac-switch stable system (induced by 0.1-1.0 mM of IPTG (Zhong et al., “LacSwitch II Regulation of Connexin43 cDNA Expression Enables Gap-junction Single-channel Analysis,” Biotechniques 34(5):1034-1034, 1041-1044, 1046 (2003), which is hereby incorporated by reference in its entirety)) or transiently using an IRES plasmid coding for eGFP (Seki et al., “Modifications in the Biophysical Properties of Connexin43 Channels by a Peptide of the Cytoplasmic Loop Region,” Circ. Res. 95(4):e22-e28 (2004); Seki et al., “Loss of Electrical Communication, but Not Plaque Formation, After Mutations in the Cytoplasmic Loop of Connexin43,” Heart Rhythm. 1(2):227-233 (2004), which are hereby incorporated by reference in their entirety). M257 (a mutant of Cx43 truncated at amino acid 257 (Morley et al., “Intramolecular Interactions Mediate pH Regulation of Connexin43 Channels,” Biophys. J. 70(3):1294-1302 (1996), which is hereby incorporated by reference in its entirety)) was transiently expressed in N2a cells also using an eGFP-containing IRES plasmid. Cells were placed on the stage of an inverted microscope equipped for epifluorescence (Nikon Diaphoto200, Filter: 520 to 560 nm). Junctional current (I) was recorded from eGFP-positive cell pairs in a dual-whole-cell voltage clamp configuration (holding potentials: −40 mV; transjuctional voltage, Vj, +[…]; step duration, 10-30 seconds). Patch pipettes were filled with a cesium-containing solution (Seki et al., “Modifications in the Biophysical Properties of Connexin43 Channels by a Peptide of the Cytoplasmic Loop Region,” Circ. Res. 95(4):e22-e28 (2004); Seki et al., “Loss of Electrical Communication, but Not Plaque Formation, After Mutations in the Cytoplasmic Loop of Connexin43,” Heart Rhythm. 1(2):227-233 (2004), which are hereby incorporated by reference in their entirety). For the low pH experiments, HEPES was replaced by MES (10 mM). Pipette resistance was 4.0-6.0MΩ. Synthetic peptides were diluted in the pipette solution to a final concentration of 0.1 mM. During recording, cells were kept at room temperature in a cesium-containing solution (Seki et al., “Modifications in the Biophysical Properties of Connexin43 Channels by a Peptide of the Cytoplasmic Loop Region,” Circ. Res. 95(4):e22-e28 (2004); Seki et al., “Loss of Electrical Communication, but Not Plaque Formation, After Mutations in the Cytoplasmic Loop of Connexin43,” Heart Rhythm. 1(2):227-233 (2004), which are hereby incorporated by reference in their entirety). For some experiments, octanol (2.0 mM) was superfused during recording. Data acquisition and recording, and criteria for single channel detection were as reported in Seki et al., “Modifications in the Biophysical Properties of Connexin43 Channels by a Peptide of the Cytoplasmic Loop Region,” Circ. Res. 95(4):e22-e28 (2004) and Seki et al., “Loss of Electrical Communication, but Not Plaque Formation, After Mutations in the Cytoplasmic Loop of Connexin43,” Heart Rhythm. 1(2):227-233 (2004), which are hereby incorporated by reference in their entirety.
Compounds were tested for their ability to interfere with octanol-induced uncoupling. Compounds are tested for their ability to interfere with acidification induces uncoupling.
Experiments were modeled after those described in Shibayama et al (2006). Junctional conductance between Cx43-expressing N2a cell pairs was assessed using conventional dual patch clamp. Peptides were diluted in the patch pipette solution and the cells will be exposed either to octanol or to a low intracellular pH. Control experiments were carried out in the absence of the compound. The results are shown in FIGS. 3A-E, which are graphs of the time course of octanol-induced changes in coupling recorded from Cx43-expressing N2a cells. FIGS. 3A-E relate to peptides 2517, 2518, 2529, 2520 and 2624 respectively. […]

[2] = biological target: T2, carboxyl terminal domain (CT) of Cx43 (Rattus norvegicus, UniProt P08050); experiment: Peptide binding to Cx43CT determined using surface plasmon resonance (SPR); settings: immobilised recombinant Cx43CT
T2 construct: GST (N, cleaved yes); made in house; host or cells: E. coli BL-21
T2 sequence (P08050 255-382): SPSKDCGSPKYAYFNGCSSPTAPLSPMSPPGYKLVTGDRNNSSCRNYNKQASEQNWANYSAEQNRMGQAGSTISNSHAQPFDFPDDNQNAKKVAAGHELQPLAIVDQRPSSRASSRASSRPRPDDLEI
Experimental: 277(39):36706-36714 (2002), which is hereby incorporated by reference in its entirety. Briefly, cDNA derived from rat Cx43 was inserted into pGEX-6P-2 (Amersham) and expressed in E. coli (BL-21). The resultant GST-fusion protein was cleaved from the GST PreScission Protease® (Amersham Biosciences). The recombinant product after cleavage contained the sequence 255-382 of rCx43 preceded by four additional amino acids (GPLG). Protein concentration was measured using the Bio-Rad DC Protein Assay. Protein purity was assessed by SDS-PAGE.
Recombinant Cx43CT was covalently bound to a carboxylmethyl dextran matrix (Salamon et al., “Surface Plasmon Resonance Spectroscopy as a Tool for Investigating the Biochemical and Biophysical Properties of Membrane Protein Systems. II: Applications to Biological Systems,” Biochim. Biophys. Acta 1331(2):131-152 (1997), which is hereby incorporated by reference in its entirety). Specific peptides were presented and, when feasible, dissociation constants (KD) were calculated from the time course of binding and unbinding of the ligand, using a 1:1 (Langmuir) association and dissociation kinetic model (Biacore software package). In both phases (association and dissociation), the first 5-8 seconds of recording were not included in the fit, to avoid artifacts resulting from peptide distribution within the flow cells (Lang et al., “Surface Plasmon Resonance as a Method to Study the Kinetics and Amplitude of Protein-protein Binding,” in PRACTICAL METHODS IN CARDIOVASCULAR RESEARCH 936-947 (Stefan Dhein, Friedrich Wilhelm Mohr & Mario Delmar eds., 2005), which is hereby incorporated by reference in its entirety).
The peptides shown in table 2 and 3 were tested for binding to the carboxyl terminal domain (CT) of Cx43 using Surface Plasmon Resonance (“SPR”). SPR is a method that was used to identify the original RXPE sequence (Shibayama et al., “Identification of a Novel Peptide that Interferes with the Chemical Regulation of Connexin-43,” Circ. Res. 98:1365-72 (2006)). The amplitude of the response is also a function of the mass of the ligate, and the normalized data according to the individual peptide Mw's are shown in table 3.

| Substance | Effect on octanol-induced uncoupling [1] | SPR respons ([2]; peptide 25 uM) [arbitrary units] | SPR respons ([2]; peptide 100 uM) [arbitrary units] | SPR respons ([2]; peptide 250 uM) [arbitrary units] | SPR respons ([2]; peptide 500 uM) [arbitrary units] | SPR respons ([2]; peptide 1 mM) [arbitrary units] | Ability to re-open gap junctions closed by the uncoupler (revert uncoupled cells to coupled) [1] | Average junctional conductance (Gj) as a function of time after onset of octanol [1] | Decrease in Gj three minutes after onset of octanol ([1]; junctional current traces of a cell pair, peptide in internal pipette solution) | Cell pairs that remained coupled / uncoupled following onset of octanol superfusion [1] |
| --- | --- | --- | --- | --- | --- | --- | --- | --- | --- | --- |
| Ac-Arg-Arg-Asn-Tyr-Arg-Arg-Asn-Tyr-NH2 (Ac-RRNYRRNY-NH2) [Compound 2497] | prevented octanol-induced uncoupling; also recorded: preventing the uncoupling of GJ | 30.2 | 84.2 | 201.5 | 327.5 | 565.2 |  |  |  |  |
| Ac-Arg-Arg-Asn-Tyr-Gly-Gly-Gly-Ser-Ala-Val-Pro-Phe-Tyr-Ser-His-Ser-Arg-Arg-Asn-Tyr-Gly-Gly-Gly-Ser-Ala-Val-Pro-Phe-Tyr-Ser-His-Ser-Arg-Arg-Asn-Tyr-NH2 (Ac-RRNYGGGSAVPFYSHSRRNYGGGSAVPFYSHSRRNY-NH2) [Compound 2371] | prevented octanol-induced uncoupling |  |  |  |  |  | able to revert uncoupled cells to couple cells; also recorded: re-open gap junctions that were initially closed by the uncoupler | decreased at first and then increased | no or only a minor decrease in Gj | uncoupled and then recoupled |
| Ac-Arg-Arg-Asn-Tyr-Gly-Gly-Gly-Ser-Ala-Val-Pro-Phe-Tyr-Ser-His-Ser-Arg-Arg-Asn-Tyr-NH2 (Ac-RRNYGGGSAVPFYSHSRRNY-NH2) [Compound 2366] | prevented octanol-induced uncoupling |  |  |  |  |  | able to revert uncoupled cells to couple cells; also recorded: re-open gap junctions that were initially closed by the uncoupler | decreased at first and then increased |  | uncoupled and then recoupled |
